These results are taken from publication PMC10716779.

The target of the assay is Full-length rat neuronal nitric oxide synthase (nNOS) (rat) (UniProt P29476).
Sequence of Full-length rat neuronal nitric oxide synthase (nNOS) (rat) (P29476 whole entry): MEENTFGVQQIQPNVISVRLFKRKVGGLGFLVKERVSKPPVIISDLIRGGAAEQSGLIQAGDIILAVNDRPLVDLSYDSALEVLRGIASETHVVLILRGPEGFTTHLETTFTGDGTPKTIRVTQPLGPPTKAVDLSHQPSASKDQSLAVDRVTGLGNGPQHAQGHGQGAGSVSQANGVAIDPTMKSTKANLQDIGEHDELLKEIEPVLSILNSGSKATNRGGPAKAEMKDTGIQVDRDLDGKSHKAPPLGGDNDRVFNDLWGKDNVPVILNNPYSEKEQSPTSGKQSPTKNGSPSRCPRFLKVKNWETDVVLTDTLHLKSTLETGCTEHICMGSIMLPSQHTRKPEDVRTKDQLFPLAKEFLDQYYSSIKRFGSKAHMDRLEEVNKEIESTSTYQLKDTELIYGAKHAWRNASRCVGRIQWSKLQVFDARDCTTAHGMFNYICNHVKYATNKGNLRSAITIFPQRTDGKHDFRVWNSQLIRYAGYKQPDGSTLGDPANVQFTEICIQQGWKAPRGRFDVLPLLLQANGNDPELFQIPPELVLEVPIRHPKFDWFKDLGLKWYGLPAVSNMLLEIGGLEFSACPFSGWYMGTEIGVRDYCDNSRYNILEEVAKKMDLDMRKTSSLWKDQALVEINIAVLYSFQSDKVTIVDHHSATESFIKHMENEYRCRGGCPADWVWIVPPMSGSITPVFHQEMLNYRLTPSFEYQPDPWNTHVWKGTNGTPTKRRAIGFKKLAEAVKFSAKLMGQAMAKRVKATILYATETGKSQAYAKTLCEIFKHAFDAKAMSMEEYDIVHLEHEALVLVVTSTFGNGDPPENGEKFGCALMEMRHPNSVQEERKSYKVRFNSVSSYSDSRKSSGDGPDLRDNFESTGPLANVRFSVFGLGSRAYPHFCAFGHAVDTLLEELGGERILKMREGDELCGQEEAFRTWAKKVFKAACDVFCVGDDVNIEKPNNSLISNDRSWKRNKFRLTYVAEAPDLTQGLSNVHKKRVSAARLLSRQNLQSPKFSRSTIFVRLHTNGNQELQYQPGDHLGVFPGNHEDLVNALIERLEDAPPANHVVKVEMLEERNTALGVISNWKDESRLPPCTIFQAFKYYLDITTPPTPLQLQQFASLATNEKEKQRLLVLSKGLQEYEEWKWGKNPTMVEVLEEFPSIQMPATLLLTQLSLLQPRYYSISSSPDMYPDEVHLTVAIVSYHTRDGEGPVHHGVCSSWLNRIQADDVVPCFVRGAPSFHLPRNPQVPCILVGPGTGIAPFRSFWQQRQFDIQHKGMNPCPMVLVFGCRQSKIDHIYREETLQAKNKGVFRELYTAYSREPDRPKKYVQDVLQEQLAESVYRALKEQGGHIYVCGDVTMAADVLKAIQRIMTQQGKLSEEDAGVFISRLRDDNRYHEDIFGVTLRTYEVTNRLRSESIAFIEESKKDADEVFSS

In turn, “Human calmodulin (CaM), N-terminal His6-TEV tag removed (from UniProt P0DP23 1-149) (natural protein)” displayed a nNOS activity (NO synthesis, oxyhemoglobin assay) of 2.0 μM nNOS against increasing CaM concentration; CaM concentration at maximal activation of 2.4 µM.
